The text below walks through data of paper PMC13694701 (2026).

The target of experiment [1] is TRIM62 (Homo sapiens, UniProt Q9BVG3). The experiment can be described thus: MST.
For experiment [2], the target named is TRIM62 PRY-SPRY (Homo sapiens, UniProt Q9BVG3). The experiment can be described thus: MST.
Sequence of TRIM62 PRY-SPRY (Q9BVG3 277-475): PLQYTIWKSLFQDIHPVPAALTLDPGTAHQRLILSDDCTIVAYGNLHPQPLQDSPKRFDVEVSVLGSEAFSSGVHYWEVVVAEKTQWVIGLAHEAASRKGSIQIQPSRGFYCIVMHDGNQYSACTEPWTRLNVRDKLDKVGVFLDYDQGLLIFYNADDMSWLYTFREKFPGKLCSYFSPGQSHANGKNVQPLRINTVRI

Sequence of TRIM62 (Q9BVG3 whole entry): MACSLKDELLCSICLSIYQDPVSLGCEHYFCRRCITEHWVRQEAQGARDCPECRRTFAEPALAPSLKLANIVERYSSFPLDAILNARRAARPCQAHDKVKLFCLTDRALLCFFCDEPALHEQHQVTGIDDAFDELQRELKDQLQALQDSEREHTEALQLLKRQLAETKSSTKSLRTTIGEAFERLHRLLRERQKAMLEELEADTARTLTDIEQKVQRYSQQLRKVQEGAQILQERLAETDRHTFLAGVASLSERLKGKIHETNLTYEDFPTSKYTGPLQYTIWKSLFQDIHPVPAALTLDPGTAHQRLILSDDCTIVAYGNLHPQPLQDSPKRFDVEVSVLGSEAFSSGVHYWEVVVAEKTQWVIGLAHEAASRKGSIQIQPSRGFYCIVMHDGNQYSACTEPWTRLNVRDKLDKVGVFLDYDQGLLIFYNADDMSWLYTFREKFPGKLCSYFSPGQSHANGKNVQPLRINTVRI

B1: FAM21 1-356 (protein)
chain: MMNRTTPDQELVPASEPVWERPWSVEEIRRSSQSWSLAADAGLLQFLQEFSQQTISRTHEIKKQVDGLIRETKATDCRLHNVFNDFLMLSNTQFIENRVYDEEVEEPVLKAEAEKTEQEKTREQKEVDLIPKVQEAVNYGLQVLDSAFEQLDIKAGNSDSEEDDANGRVELILEPKDLYIDRPLPYLIGSKLFMEQEDVGLGELSSEEGSVGSDRGSIVDTEEEKEEEESDEDFAHHSDNEQNQHTTQMSDEEEDDDGCDLFADSEKEEEDIEDIEENTRPKRSRPTSFADELAARIKGDAMGRVDEEPTTLPSGEAKPRKTLKEKKERRTPSDDEEDNLFAPPKLTDEDFSPFGS
B1: the figures for the Kd in experiment [1] and in experiment [2] were 0.4 µM and 44.9 µM, respectively.

By Kd is commonly meant the constant that tells how readily two partners part at equilibrium. Read a high Kd as lower affinity.
